Assay results reported in article PMC8809517, “Cofactor-independent RNA editing by a synthetic S-type PPR protein”.

Legend:
[1] = tested on: TRX-9S-S2 (synthetic construct (Selaginella-type S motif consensus)); assay: fluorescence polarization; settings: HRP: 50 mM Tris pH 8, 150 mM NaCl, 1 mM bME, 50 ug/ml BSA, 3 ug/ml yeast RNA, 0.5% heparin, 2 nM RNA; ITC (25 C) and FP: Tris pH 8, 200 mM KCl, 5% glycerol …
[2] = tested on: TRX-9S-S2 (synthetic construct (Selaginella-type S motif consensus)); assay: ITC; settings: HRP: 50 mM Tris pH 8, 150 mM NaCl, 1 mM bME, 50 ug/ml BSA, 3 ug/ml yeast RNA, 0.5% heparin, 2 nM RNA; ITC (25 C) and FP: Tris pH 8, 200 mM KCl, 5% glycerol …
[3] = tested on: TRX-9P-S2 (synthetic construct); assay: ITC; settings: HRP: 50 mM Tris pH 8, 150 mM NaCl, 1 mM bME, 50 ug/ml BSA, 3 ug/ml yeast RNA, 0.5% heparin, 2 nM RNA; ITC (25 C) and FP: Tris pH 8, 200 mM KCl, 5% glycerol …
[4] = tested on: GFP-9S motif 4 LD (synthetic construct); assay: HRP pulldown; settings: lysate, HRP: 50 mM Tris pH 8, 150 mM NaCl, 1 mM bME, 50 ug/ml BSA, 3 ug/ml yeast RNA, 0.5% heparin, 2 nM RNA, ITC (25 C) and FP: Tris pH 8, 200 mM KCl, 5% glycerol …
[5] = tested on: GFP-9S motif 4 ID (synthetic construct); assay: HRP pulldown; settings: lysate; HRP: 50 mM Tris pH 8, 150 mM NaCl, 1 mM bME, 50 ug/ml BSA, 3 ug/ml yeast RNA, 0.5% heparin, 2 nM RNA; ITC (25 C) and FP: Tris pH 8, 200 mM KCl, 5% glycerol …
[6] = tested on: GFP-9S motif 4 KD (synthetic construct); assay: HRP pulldown; settings: lysate, HRP: 50 mM Tris pH 8, 150 mM NaCl, 1 mM bME, 50 ug/ml BSA, 3 ug/ml yeast RNA, 0.5% heparin, 2 nM RNA, ITC (25 C) and FP: Tris pH 8, 200 mM KCl, 5% glycerol …
[7] = tested on: GFP-9S motif 4 TD (synthetic construct); assay: HRP pulldown; settings: HRP: 50 mM Tris pH 8, 150 mM NaCl, 1 mM bME, 50 ug/ml BSA, 3 ug/ml yeast RNA, 0.5% heparin, 2 nM RNA; ITC (25 C) and FP: Tris pH 8, 200 mM KCl, 5% glycerol …
[8] = tested on: TRX-AviTag-9S-S2 (synthetic construct); assay: HRP pulldown; settings: HRP: 50 mM Tris pH 8, 150 mM NaCl, 1 mM bME, 50 ug/ml BSA, 3 ug/ml yeast RNA, 0.5% heparin, 2 nM RNA; ITC (25 C) and FP: Tris pH 8, 200 mM KCl, 5% glycerol …
[9] = tested on: TRX-9S-S2 (synthetic construct (Selaginella-type S motif consensus)); assay: HRP pulldown; settings: HRP: 50 mM Tris pH 8, 150 mM NaCl, 1 mM bME, 50 ug/ml BSA, 3 ug/ml yeast RNA, 0.5% heparin, 2 nM RNA; ITC (25 C) and FP: Tris pH 8, 200 mM KCl, 5% glycerol …
[10] = tested on: TRX-9P-S2 (synthetic construct); assay: HRP pulldown; settings: HRP: 50 mM Tris pH 8, 150 mM NaCl, 1 mM bME, 50 ug/ml BSA, 3 ug/ml yeast RNA, 0.5% heparin, 2 nM RNA; ITC (25 C) and FP: Tris pH 8, 200 mM KCl, 5% glycerol …
[11] = tested on: GFP-9S (synthetic construct); assay: HRP pulldown; settings: HRP: 50 mM Tris pH 8, 150 mM NaCl, 1 mM bME, 50 ug/ml BSA, 3 ug/ml yeast RNA, 0.5% heparin, 2 nM RNA; ITC (25 C) and FP: Tris pH 8, 200 mM KCl, 5% glycerol …
[12] = tested on: TRX-9S-E2 (synthetic construct); assay: MST; settings: HRP: 50 mM Tris pH 8, 150 mM NaCl, 1 mM bME, 50 ug/ml BSA, 3 ug/ml yeast RNA, 0.5% heparin, 2 nM RNA; ITC (25 C) and FP: Tris pH 8, 200 mM KCl, 5% glycerol …
9S-S2 PPR [13] = target: T1, 9S-S2 PPR (synthetic construct); assay: high-throughput RNA pulldown on Ni-NTA beads; HRP: 50 mM Tris pH 8, 150 mM NaCl, 1 mM beta-mercaptoethanol, 50 ug/ml BSA, 3 ug/ml yeast RNA, 0.5% heparin; ITC and FP: Tris pH 8, 200 mM KCl, 5% glycerol; MST: 50 mM Tris pH 8, 200 mM NaCl, 1 mM DTT, BSA, heparin, 0.05% Tween 20; settings: protein: recombinant; tags: N-terminal TRX-His; label: 5' Cy5
T1 chain: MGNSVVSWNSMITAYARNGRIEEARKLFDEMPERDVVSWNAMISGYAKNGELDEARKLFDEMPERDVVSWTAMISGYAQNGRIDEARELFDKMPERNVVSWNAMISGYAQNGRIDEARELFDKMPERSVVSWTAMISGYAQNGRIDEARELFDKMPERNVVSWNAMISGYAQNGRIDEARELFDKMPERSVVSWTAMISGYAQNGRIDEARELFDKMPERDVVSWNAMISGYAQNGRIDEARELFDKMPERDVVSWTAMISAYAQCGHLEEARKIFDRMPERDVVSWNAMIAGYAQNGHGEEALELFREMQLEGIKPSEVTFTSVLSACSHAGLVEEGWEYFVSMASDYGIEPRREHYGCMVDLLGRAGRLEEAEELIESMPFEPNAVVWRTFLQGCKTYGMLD

9S-S2 PPR [14] = target: T1, 9S-S2 PPR; assay: isothermal titration calorimetry; HRP: 50 mM Tris pH 8, 150 mM NaCl, 1 mM beta-mercaptoethanol, 50 ug/ml BSA, 3 ug/ml yeast RNA, 0.5% heparin; ITC and FP: Tris pH 8, 200 mM KCl, 5% glycerol; MST: 50 mM Tris pH 8, 200 mM NaCl, 1 mM DTT, BSA, heparin, 0.05% Tween 20; settings: protein: recombinant; tags: N-terminal TRX-His
9P-S2 = target: T2, 9P-S2 (synthetic construct); assay: as above; settings: protein: recombinant; tags: N-terminal TRX-His
T2 chain: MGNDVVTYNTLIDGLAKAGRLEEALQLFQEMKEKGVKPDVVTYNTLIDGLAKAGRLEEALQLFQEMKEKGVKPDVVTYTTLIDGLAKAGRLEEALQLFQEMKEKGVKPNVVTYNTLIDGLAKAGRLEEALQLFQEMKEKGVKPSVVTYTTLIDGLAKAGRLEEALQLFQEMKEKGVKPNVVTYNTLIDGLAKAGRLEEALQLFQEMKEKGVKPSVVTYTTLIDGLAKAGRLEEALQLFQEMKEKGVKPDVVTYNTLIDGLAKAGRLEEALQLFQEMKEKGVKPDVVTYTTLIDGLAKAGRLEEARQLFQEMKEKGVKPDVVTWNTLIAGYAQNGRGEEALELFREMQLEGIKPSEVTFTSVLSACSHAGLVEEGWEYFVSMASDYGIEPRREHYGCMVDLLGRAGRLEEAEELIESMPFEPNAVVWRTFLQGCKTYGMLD

9S-S2 PPR [15] = target: T1, 9S-S2 PPR; assay: fluorescence polarization; HRP: 50 mM Tris pH 8, 150 mM NaCl, 1 mM beta-mercaptoethanol, 50 ug/ml BSA, 3 ug/ml yeast RNA, 0.5% heparin; ITC and FP: Tris pH 8, 200 mM KCl, 5% glycerol; MST: 50 mM Tris pH 8, 200 mM NaCl, 1 mM DTT, BSA, heparin, 0.05% Tween 20; settings: protein: recombinant; tags: N-terminal TRX-His; label: fluorescein
[16] = Kd above 200 nM called unreliable

AUUACACGUG [rpoA (FP)]
Kd [1]: 0.0076 µM

UUACACGUG [rpoA footprint (ITC)]
Kd [2]: 0.048 µM
Kd [3]: 0.239 µM

AUUAUACGUGA [IR-rpoA-U]
Kd [4]: 0.0663 µM
Kd [5]: 0.0535 µM
Kd [6, 16]: 0.279 µM

AUUAGACGUGA [Cy5-rpoA-G]
Kd [4]: 0.183 µM
Kd [5]: 0.127 µM
Kd [6, 16]: 0.315 µM
Kd [7]: 0.014 µM

AUUACACGUGA [Cy5-rpoA]
Kd [4, 16]: 0.214 µM
Kd [5]: 0.153 µM
Kd [8]: 0.0053 µM
Kd [9]: 0.0064 µM
Kd [6]: 0.189 µM
Kd [10]: 0.068 µM
Kd [7]: 0.28 µM
Kd [11]: 0.012 µM
Kd [12]: 0.0068 µM

AUUAAACGUGA [IR-rpoA-A]
Kd [4, 16]: 0.452 µM
Kd [5]: 0.175 µM
Kd [6, 16]: 0.409 µM

CAGCAACAGAAGCCCAAGCUCAUGGA (ssRNA) [Cy5-clpP (clpP1)]
binding result (9S-S2 PPR [13]): no binding

UUACACGUG (ssRNA) [rpoA footprint (ITC)]
Kd (9S-S2 PPR [14]): 0.048 µM
Kd (9P-S2): 0.239 µM

AUUACACGUG (ssRNA) [rpoA (FP)]
Kd (9S-S2 PPR [15]): 0.0076 µM
